From US20140303084
Positions count from the first letter of the chain named.

Columns and labels:
[1] = tested on: T1, RRAPGKLTCLASYAWLCWTGIA-COOH
T1 sequence: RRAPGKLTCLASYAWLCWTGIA

[2] = tested on: T2, RRAPGKLT-Lys-LASY-Asp-WLFWTGIA-COOH
T2 sequence: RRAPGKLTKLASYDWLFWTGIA

[3] = tested on: T3, RRAPGKLTCLASK(PEG2-Biotin)CWLFWTGIA
T3 sequence: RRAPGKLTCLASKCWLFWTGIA

[4] = tested on: T4, PRSRTVGPGSRSASGKLTCLASYCWLFWTGIA
T4 sequence: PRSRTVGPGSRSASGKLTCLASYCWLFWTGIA

[5] = tested on: T5, RRAPGKLQCLASYCWLFWTGAA
T5 sequence: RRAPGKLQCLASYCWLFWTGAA

[6] = tested on: T6, compound 19
T6 sequence: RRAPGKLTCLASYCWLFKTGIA

[7] = tested on: T7, GKLQCLASYCWLFWTGIA
T7 sequence: GKLQCLASYCWLFWTGIA

[8] = tested on: T8, compound 20
T8 sequence: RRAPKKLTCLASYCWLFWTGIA

[9] = tested on: T9, SKQGRPISPDrRAAGKLTCLAS-NMeTyr-CWLFWTGIA
T9 sequence: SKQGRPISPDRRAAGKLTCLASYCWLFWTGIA

[10] = tested on: T10, VSGTGKLTCLASYCWLFQLGSF
T10 sequence: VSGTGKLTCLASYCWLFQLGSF

[11] = tested on: T11, SKQGRAISPDrRAAGKLTCLASYCWLFWTGIA
T11 sequence: T9 sequence with P6A

[12] = tested on: T12, KLTCLASYCWLf
T12 sequence: KLTCLASYCWLF

[13] = tested on: T13, rRAPGKLTCLASSCWLFWTGIA
T13 sequence: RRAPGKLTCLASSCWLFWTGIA

[14] = tested on: T14, AIGTWFLWCYSALCTLKGPARR (retro)
T14 sequence: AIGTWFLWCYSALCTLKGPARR

[15] = tested on: T15, RRAPGkLTCLASYCWLFWTGIA
T15 sequence: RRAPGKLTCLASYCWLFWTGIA

[16] = tested on: T16, RRAPGKLTCLASYCWLF WTGWA VLARVPVGWT
T16 sequence: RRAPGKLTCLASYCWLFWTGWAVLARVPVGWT

[17] = tested on: T17, RRAPGKLQCLASYCWLFWTG-(1-Nal)-A
T17 sequence: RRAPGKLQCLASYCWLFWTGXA

[18] = tested on: T18, RRAPGKLTCLASYCWLF WTGYA SGKPSRVYVI
T18 sequence: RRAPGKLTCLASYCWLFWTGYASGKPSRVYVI

[19] = tested on: T19, RRAPGKLQCLASYCWLFWTGIAAAAGAP
T19 sequence: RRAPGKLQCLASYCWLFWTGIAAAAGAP

[20] = tested on: T20, KLT-Lys-LASY-Glu-WLF
T20 sequence: KLTKLASYEWLF

[21] = tested on: T21, compound 4
T21 sequence: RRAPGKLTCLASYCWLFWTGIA

[22] = tested on: T22, SLISMTNPSG RRVPG KLTCLASYCWLFWTGIA
T22 sequence: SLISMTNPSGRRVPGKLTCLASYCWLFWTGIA

[23] = tested on: T23, RRAPGKLTCLAsYCWLFWTGIA
T23 sequence: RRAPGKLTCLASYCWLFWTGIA

[24] = tested on: T24, KLTALASYAWLF
T24 sequence: KLTALASYAWLF

[25] = tested on: T25, k-MeLeu-TCLASYCWLA
T25 sequence: KLTCLASYCWLA

[26] = tested on: T26, QAKMLKLTCLASYCWLFWVTRS
T26 sequence: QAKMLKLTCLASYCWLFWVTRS

[27] = tested on: T27, MAGMLKLTCFASYCGLFPLVSS
T27 sequence: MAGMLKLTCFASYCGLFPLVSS

[28] = tested on: T28, RRAPGKLQCLASYCWLFWTGI
T28 sequence: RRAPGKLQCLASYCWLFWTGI

[29] = tested on: T29, SKQGRPISPDRRAAGKLT-Asp-LASY-Orn-WLFWTGIA
T29 sequence: T9 sequence with C19D, C24X

[30] = tested on: T30, k-MeLeu-TCLASFCWLF
T30 sequence: KLTCLASFCWLF

[31] = tested on: T31, KLKCLASYCWLF
T31 sequence: KLKCLASYCWLF

[32] = tested on: T32, PRIRSVGPGSRSASGKLTCLASYCWLFWTGIA
T32 sequence: T4 sequence with S3I, T5S

[33] = tested on: T33, PRIRTVGPGSRSASGKLTCLASYCWLLWTGIA
T33 sequence: T4 sequence with S3I, F27L

[34] = tested on: T34, RRAPG-k-NMeLeu-TCLASYCWLFWTGIA
T34 sequence: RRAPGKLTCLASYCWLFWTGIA

[35] = tested on: T35, KLT-HCy-LASYCWLF
T35 sequence: KLTXLASYCWLF

[36] = tested on: T36, RRApGKLTCLASYCWLFWTGIA
T36 sequence: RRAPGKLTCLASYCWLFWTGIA

[37] = tested on: T37, RRAPGKLTCLASYCWLF WTAVG GQPYMLLAWR
T37 sequence: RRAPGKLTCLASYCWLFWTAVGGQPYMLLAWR

[38] = tested on: T38, RGRSAKLRCLASYCWLFFGVIL
T38 sequence: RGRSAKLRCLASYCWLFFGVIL

[39] = tested on: T39, PRISTVGPGSRSASGKLTCLASYCWLFWTGIA
T39 sequence: T4 sequence with S3I, R4S

[40] = tested on: T40, KLTCLASYCW-MeLeu-F
T40 sequence: KLTCLASYCWLF

[41] = tested on: T41, rRAAGKLTCLASYCWLFATGIA
T41 sequence: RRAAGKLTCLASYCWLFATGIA

[42] = tested on: T42, compound 5
T42 sequence: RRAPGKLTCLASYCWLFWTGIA

[43] = tested on: T43, NGALGFRSVV PRAAG KLTCLASYCWLFWTGIA
T43 sequence: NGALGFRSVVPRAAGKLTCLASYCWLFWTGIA

[44] = tested on: T44, LYPRLYTPGS RRAYG KLTCLASYCWLFWTGIA
T44 sequence: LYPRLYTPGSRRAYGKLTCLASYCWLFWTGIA

[45] = tested on: T45, KRAPGKLQCLASYCWLFWTGIA
T45 sequence: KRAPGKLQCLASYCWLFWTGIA

[46] = tested on: T46, RRAPGKLTCLASYCWLF FTGVA RSTTATTNTQ
T46 sequence: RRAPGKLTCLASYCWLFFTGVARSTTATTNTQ

[47] = tested on: T47, RRAPGKLTCLASYCWL-MePhe-WTGIA
T47 sequence: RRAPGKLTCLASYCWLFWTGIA

[48] = tested on: T48, compound 18
T48 sequence: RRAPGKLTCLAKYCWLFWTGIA

[49] = tested on: T49, RRAPGKLTCLASYCWLFWK(PEG2-Biotin)GIA
T49 sequence: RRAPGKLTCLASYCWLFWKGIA

With human Factor IXa the Vmax, FXa generation assay [1] was > 0.5, the Vmax, FXa generation assay [2] was > 0.5 and the “Vmax, FXa generation assay; (++) means 1-2” value (“Vmax … (++) means 1-2” below) [3] was “(++)”. The Vmax, FXa generation assay [4] was > 3, the Vmax, FXa generation assay [5] was > 3 and the Vmax, FXa generation assay with hFIXa [6] was > 2. For the same substance, the Vmax, FXa generation assay [7] was > 2, the Vmax, FXa generation assay with hFIXa [8] was > 2 and the Vmax, FXa generation assay [9] was > 0.3. For the same substance, the “Vmax … (++) means 1-2” value [10] was “(++)”, the Vmax, FXa generation assay [11] was > 3 and the Vmax, FXa generation assay [12] was > 3. The “Vmax … (++) means 1-2” value [13] was “(++)”, the “Vmax … (++) means 1-2” value [14] was “(++)” and the Vmax, FXa generation assay [15] was > 2. The Vmax, FXa generation assay [16] was > 2, the Vmax, FXa generation assay [17] was > 2 and the Vmax, FXa generation assay [18] was > 3. For the same substance, the “Vmax … (++) means 1-2” value [19] was “(++)”, the “Vmax … (++) means 1-2” value [20] was “(++)” and the KM (nM) of hFIXa for FX [21] was 11 nM. For the same substance, the Vmax, FXa generation assay with hFIXa [21] was > 2, the kcat (min^-1) of hFIXa for FX, compound at 1 µM [21] was 0.0171 min⁻¹ and the Δ KM (Km compound/Km buffer) [21] was 0.14. For the same substance, the Vmax, FXa generation assay [22] was > 2, the “Vmax … (++) means 1-2” value [23] was “(++)” and the Vmax, FXa generation assay [24] was > 2. The Vmax, FXa generation assay [25] was > 2, the Vmax, FXa generation assay [26] was > 2 and the “Vmax … (++) means 1-2” value [27] was “(++)”. For the same substance, the Vmax, FXa generation assay [28] was > 2, the Vmax, FXa generation assay [29] was > 3 and the Vmax, FXa generation assay [30] was > 2. The Vmax, FXa generation assay [31] was > 3, the Vmax, FXa generation assay [32] was > 3 and the Vmax, FXa generation assay [33] was > 3. The Vmax, FXa generation assay [34] was > 3, the Vmax, FXa generation assay [35] was > 2 and the “Vmax … (++) means 1-2” value [36] was “(++)”. For the same substance, the “Vmax … (++) means 1-2” value [37] was “(++)”, the Vmax, FXa generation assay [38] was > 2 and the Vmax, FXa generation assay [39] was > 3. For the same substance, the Vmax, FXa generation assay [40] was > 2, the “Vmax … (++) means 1-2” value [41] was “(++)” and the KM (nM) of hFIXa for FX [42] was 11 nM. For the same substance, the Vmax, FXa generation assay with hFIXa [42] was > 2, the kcat (min^-1) of hFIXa for FX, compound at 1 µM [42] was 0.0179 min⁻¹ and the Δ KM (Km compound/Km buffer) [42] was 0.14. The Δ kM of FIXa, FXa generation assay [42] was 0.14, the Δ kcat of FIXa, FXa generation assay [42] was 199 fold and the Vmax, FXa generation assay [43] was > 2. For the same substance, the Vmax, FXa generation assay [44] was > 2, the Vmax, FXa generation assay [45] was > 2 and the Vmax, FXa generation assay [46] was > 2. For the same substance, the Vmax, FXa generation assay [47] was > 2, the Vmax, FXa generation assay with hFIXa [48] was > 2 and the “Vmax … (++) means 1-2” value [49] was “(++)”.
